Starred links: 1 amine or outer side, 2 acyl side, 3 side chain; linkers in the order of their positions; H or OH if unused. Positions of bridges follow the written chain, without caps; N, C: chain ends. Non-standard residues stand in square brackets, D forms with d. Primed or numbered codes have the meaning given here. (CH2CMe2CO2H)TriAzDap = (S)-3-(1-(2-amino-2-carboxyethyl)-1H-1,2,3-triazol-4-yl)-2,2-dimethylpropanoic acid, CC(C)(Cc1cn(C[C@H](N[*:1])C(=O)[*:2])nn1)C(=O)[*:3]; (CH2CMe2CO2H)TriAzDab = (S)-2-amino-4-(4-(2-carboxy-2-methylpropyl)-1H-1,2,3-triazol-1-yl)butanoic acid, CC(C)(Cc1cn(CC[C@H](N[*:1])C(=O)[*:2])nn1)C(=O)[*:3]; (CMe2CO2H)TriAzDab = (S)-2-amino-4-(4-(2-carboxypropan-2-yl)-1H-1,2,3-triazol-1-yl)butanoic acid, CC(C)(C(=O)[*:3])c1cn(CC[C@H](N[*:1])C(=O)[*:2])nn1; (CMe2CO2H)TriAzDap = (S)-2-amino-3-(4-(2-carboxypropan-2-yl)-1H-1,2,3-triazol-1-yl)propanoic acid, CC(C)(C(=O)[*:3])c1cn(C[C@H](N[*:1])C(=O)[*:2])nn1; PyrS2″ = (S)-3-amino-1-((pent-4-en-1-yloxy)carbonyl)pyrrolidine-3-carboxylic acid (stapling residue), C=CCCCOC(=O)N1CC[C@@](N[*:1])(C(=O)[*:2])C1; (2COOHPh)TriAzDap = (S)-2-(1-(2-amino-2-carboxyethyl)-1H-1,2,3-triazol-4-yl)benzoic acid, O=C([C@H](Cn1cc(-c2ccccc2C(=O)[*:3])nn1)N[*:1])[*:2]; (CH2CH2CO2H)TriAzDab = (S)-2-amino-4-(4-(2-carboxyethyl)-1H-1,2,3-triazol-1-yl)butanoic acid, O=C([C@H](CCn1cc(CCC(=O)[*:3])nn1)N[*:1])[*:2]; (CH2CH2CO2H)TriAzDap = (S)-2-amino-3-(4-(2-carboxyethyl)-1H-1,2,3-triazol-1-yl)propanoic acid, O=C([C@H](Cn1cc(CCC(=O)[*:3])nn1)N[*:1])[*:2]; (CH2CO2H)TriAzDab = (S)-2-amino-4-(4-(carboxymethyl)-1H-1,2,3-triazol-1-yl)butanoic acid, O=C([C@H](CCn1cc(CC(=O)[*:3])nn1)N[*:1])[*:2]; (CH2CO2H)TriAzDap = (S)-2-amino-3-(4-(carboxymethyl)-1H-1,2,3-triazol-1-yl)propanoic acid, O=C([C@H](Cn1cc(CC(=O)[*:3])nn1)N[*:1])[*:2]; B5(4) = 2,2-bis(4-pentenyl)glycine = 2-amino-2-(pent-4-en-1-yl)hept-6-enoic acid (stitching residue), C=CCCCC(CCCC=C)(N[*:1])C(=O)[*:2]; (2COOHPh)TriAzDab = O=C([C@H](CCn1cc(-c2ccccc2C(=O)[*:3])nn1)N[*:1])[*:2]; Phe(3-COOH) = N[C@@H](Cc1cccc(C(=O)O)c1)C(=O)O; 2F3MeF = Cc1cccc(C[C@H](N[*:1])C(=O)[*:2])c1F; Phe(2-CF3) = N[C@@H](Cc1ccccc1C(F)(F)F)C(=O)O; Bta = N[C@@H](Cc1csc2ccccc12)C(=O)O; αAllylPro = C=CC[C@@]1(C(=O)O)CCCN1; tBuAla = CC(C)(C)C[C@H](N)C(=O)O; 3Thi = N[C@@H](Cc1ccsc1)C(=O)O; PyrS2(4) = not defined here

The target of this assay is T1, Bcat-Halo (UniProt P35222 1-781).
T1 sequence (looked up): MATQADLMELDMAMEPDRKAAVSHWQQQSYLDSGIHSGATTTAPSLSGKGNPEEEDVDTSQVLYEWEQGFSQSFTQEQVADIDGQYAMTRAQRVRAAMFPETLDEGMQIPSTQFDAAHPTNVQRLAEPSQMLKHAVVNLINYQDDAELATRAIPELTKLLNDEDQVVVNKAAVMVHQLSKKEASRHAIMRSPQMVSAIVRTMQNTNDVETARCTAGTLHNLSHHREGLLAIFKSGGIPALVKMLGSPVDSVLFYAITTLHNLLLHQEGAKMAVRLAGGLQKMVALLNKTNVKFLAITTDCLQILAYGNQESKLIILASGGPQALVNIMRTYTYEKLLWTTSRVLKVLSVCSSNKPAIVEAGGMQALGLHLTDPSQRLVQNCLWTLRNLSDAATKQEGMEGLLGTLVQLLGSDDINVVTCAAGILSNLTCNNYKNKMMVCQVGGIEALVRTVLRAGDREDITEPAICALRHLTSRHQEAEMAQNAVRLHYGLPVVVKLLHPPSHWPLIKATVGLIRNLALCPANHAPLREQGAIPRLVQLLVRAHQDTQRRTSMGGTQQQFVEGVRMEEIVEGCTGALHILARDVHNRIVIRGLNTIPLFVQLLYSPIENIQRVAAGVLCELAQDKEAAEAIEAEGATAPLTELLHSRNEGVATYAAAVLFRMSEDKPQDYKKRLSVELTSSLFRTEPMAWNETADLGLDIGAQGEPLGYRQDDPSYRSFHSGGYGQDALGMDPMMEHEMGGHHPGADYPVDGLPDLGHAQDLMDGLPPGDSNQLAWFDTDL
Description: cell-based or functional assay.
As to Ac-[αAllylPro]D[tBuAla][B5(4)]D[Phe(3-COOH)]AAFF[PyrS2″][3Thi][Bta][dQ]-NH2 (staple 1-4, 4-11) [I-2092], the “NanoBRET Abs IC50” value was 4.4 µM. Ac-[αAllylPro]D[tBuAla][B5(4)]D[(CH2CH2CO2H)TriAzDab]AAFL[PyrS2″][3Thi][Bta]Q-NH2 (staple 1-4, 4-11) [I-2076]: the “NanoBRET Abs IC50” value came to 14.1 µM.

As for Ac-[αAllylPro]D[tBuAla][B5(4)]D[(2COOHPh)TriAzDab]AAFL[PyrS2(4)][3Thi][Bta]Q-NH2 (staple 1-4, 4-11; not fully specified; reading uncertain) [I-2081], the “NanoBRET Abs IC50” value came to 11.6 µM. Take Ac-[αAllylPro]D[tBuAla][B5(4)]D[(CMe2CO2H)TriAzDab]AAFL[PyrS2″][3Thi][Bta]Q-NH2 (staple 1-4, 4-11) [I-2079]: the “NanoBRET Abs IC50” value was 15.1 µM. With Ac-[αAllylPro]D[tBuAla][B5(4)]D[(CH2CMe2CO2H)TriAzDap]AAFL[PyrS2″][3Thi][Bta]Q-NH2 (staple 1-4, 4-11) [I-2083] the figure was 3.7 µM; with Ac-[αAllylPro]D[tBuAla][B5(4)]D[(CH2CO2H)TriAzDap]AAFL[PyrS2″][3Thi][Bta]Q-NH2 (staple 1-4, 4-11) [I-2084], 9.2 µM; with Ac-[αAllylPro]D[tBuAla][B5(4)]D[(CMe2CO2H)TriAzDap]AAFL[PyrS2″][3Thi][Bta]Q-NH2 (staple 1-4, 4-11) [I-2085], 6.2 µM.

For the molecule Ac-[αAllylPro]D[tBuAla][B5(4)]D[Phe(3-COOH)]AAFL[PyrS2(4)][2F3MeF][Bta][dQ]-NH2 (staple 1-4, 4-11; reading uncertain) [I-2089], the “NanoBRET Abs IC50” value was 2.9 µM. With Ac-[αAllylPro]D[tBuAla][B5(4)]D[(CH2CO2H)TriAzDab]AAFL[PyrS2″][3Thi][Bta]Q-NH2 (staple 1-4, 4-11) [I-2078] the figure was 11.7 µM; with Ac-[αAllylPro]D[tBuAla][B5(4)]D[(CH2CH2CO2H)TriAzDap]AAFL[PyrS2″][3Thi][Bta]Q-NH2 (staple 1-4, 4-11) [I-2082], 7.7 µM.

For the molecule Ac-[αAllylPro]D[tBuAla][B5(4)]D[(2COOHPh)TriAzDab]AAFL[PyrS2″][3Thi][Bta]Q-NH2 (staple 1-4, 4-11; not fully specified) [I-2080], the “NanoBRET Abs IC50” value is 28.8 µM. On to Ac-[αAllylPro]D[tBuAla][B5(4)]D[Phe(3-COOH)]AAFL[PyrS2(4)][3Thi][Bta][dA]-NH2 (staple 1-4, 4-11; reading uncertain) [I-2090], for which the “NanoBRET Abs IC50” value was 5.9 µM. Turning to Ac-[αAllylPro]D[tBuAla][B5(4)]D[Phe(3-COOH)]AAFL[PyrS2″][Phe(2-CF3)][Bta][dA]-NH2 (staple 1-4, 4-11) [I-2091], the “NanoBRET Abs IC50” value turned out to be 6.2 µM. To Ac-[αAllylPro]D[tBuAla][B5(4)]D[(CH2CMe2CO2H)TriAzDab]AAFL[PyrS2″][3Thi][Bta]Q-NH2 (staple 1-4, 4-11) [I-2077] belongs 12.3 µM; to Ac-[αAllylPro]D[tBuAla][B5(4)]D[(2COOHPh)TriAzDap]AAFL[PyrS2″][3Thi][Bta]Q-NH2 (staple 1-4, 4-11) [I-2086], 16.4 µM.
